Laboratory results from patent US20170174769A1 (Regeneron, published 2017).
Numbering of substitutions follows the chain as printed. Numbers in names are those of the source.

T1: full-length human KLB on HEK293/hKLB/SRE-luc cells (human, UniProt Q86Z14 1-1044)
T1 construct: amino acids 1-1044 of NP_783864.1
T1 sequence: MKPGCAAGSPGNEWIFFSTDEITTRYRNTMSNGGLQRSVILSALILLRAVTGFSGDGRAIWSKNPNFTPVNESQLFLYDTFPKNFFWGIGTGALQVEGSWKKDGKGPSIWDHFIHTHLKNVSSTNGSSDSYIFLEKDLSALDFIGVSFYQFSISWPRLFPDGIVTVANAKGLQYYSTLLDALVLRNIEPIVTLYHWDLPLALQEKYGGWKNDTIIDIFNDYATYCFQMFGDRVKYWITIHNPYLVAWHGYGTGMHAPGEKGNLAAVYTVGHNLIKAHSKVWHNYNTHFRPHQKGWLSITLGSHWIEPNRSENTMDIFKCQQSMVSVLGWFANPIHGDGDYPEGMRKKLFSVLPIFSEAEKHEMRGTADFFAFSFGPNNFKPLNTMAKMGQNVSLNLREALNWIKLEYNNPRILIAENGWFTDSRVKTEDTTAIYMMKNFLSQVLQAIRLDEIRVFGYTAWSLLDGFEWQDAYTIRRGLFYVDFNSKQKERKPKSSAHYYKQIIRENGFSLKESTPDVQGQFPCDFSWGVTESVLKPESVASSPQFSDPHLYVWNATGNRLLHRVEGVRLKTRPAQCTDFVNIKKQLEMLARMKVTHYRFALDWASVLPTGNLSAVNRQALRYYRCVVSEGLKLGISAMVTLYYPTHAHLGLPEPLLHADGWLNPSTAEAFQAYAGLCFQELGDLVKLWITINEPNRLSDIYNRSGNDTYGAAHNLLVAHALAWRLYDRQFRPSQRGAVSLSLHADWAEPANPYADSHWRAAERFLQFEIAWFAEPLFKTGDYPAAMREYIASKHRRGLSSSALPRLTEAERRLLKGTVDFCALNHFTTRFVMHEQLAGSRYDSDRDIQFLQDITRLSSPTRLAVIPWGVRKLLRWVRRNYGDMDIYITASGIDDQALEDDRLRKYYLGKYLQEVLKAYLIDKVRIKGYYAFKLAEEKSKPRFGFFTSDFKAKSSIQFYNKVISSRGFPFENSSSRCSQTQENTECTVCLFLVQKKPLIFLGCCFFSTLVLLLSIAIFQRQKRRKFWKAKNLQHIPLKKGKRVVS

B1: H2aM8091N (antibody, V domains shown)
VH: QVQLVQSGADMKKPGASVKVSCKASGYTFTTYGINWVRQAPGQGLEWMGWISAYSGITNYAQSFQGRVTMTTDTSTSTAYMELRSLRSDDTAVYYCARGGYNWATGDYFDYWGQGTLVTVSS
VL: DIQMTQSPSTLSASIGDRVTITCRASQSISSWLAWYQQKPGKAPKFLIYKASSLASGVPSRFSGSGSGTEFTLTISSLQPDDFATYYCQQYDSYSPYTFGQGTKVEIK
notes: mouse IgG2 Fc (H2aM prefix); also called H2M8091N
B2: H2aM8092N (antibody, V domains shown)
VH: QVQLQESGPGLVKPSETLSLTCTVSGGSISSYYWSWIRQPPGKGLDWIGHIYYSGTTYYNPSLKSRVSISLDTSKNQFSLKLSSVTAADTAVYYCARHLRGYSSGREFDYWGQGTLVTVSS
VL: DIQMTQSPSSLSASVGGRVSLTCRASQSIFSYLNWYQQKPGKAPKLLIYAASNLQSGVPSRFSGSGSGTDFTLTISSLQPEDFATYSCQQSYNIPYTFGQGTKLEIK
notes: mouse IgG2 Fc (H2aM prefix); also called H2M8092N
B3: H1M8115N (antibody, V domains shown)
VH: QVQLVQSGAEVKKPGSSVKVSCKASGGTFSTYEISWVRQAPGQGLEWMGGIIPVFGTTHYAQKFQDSVTITTDESTGTAFMELSSLKSEDTAVYYCARGGAGGDNWGQGTLVTVSS
VL: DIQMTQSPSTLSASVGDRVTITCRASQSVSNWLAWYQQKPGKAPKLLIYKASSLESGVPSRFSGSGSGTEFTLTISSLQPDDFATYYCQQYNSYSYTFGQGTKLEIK
notes: H1M Fc prefix (mouse Fc)
B4: H1H8899P (antibody, V domains shown)
VH: EVQLVESGGGLVQPGGSLRLSCAASGFTFSSHWMSWVRQAPGKGLEWVANIKQDGSEKYYVDSVKGRFTISRDNAKNSLYLQISSLRAEDTAVYYCASNWNFLFDFWGQGTLVTVSS
VL: not shown
B5: H2aM8093N (antibody, V domains shown)
VH: QVQLVQSGAEVKRPGSSVKVSCKASGDTFSTYAISWVRQAPGQGLEWMGGIIPVFGTTNYAQKFQDRVTITTDESTRTAYMELSSLRSEDTAVYYCAGIAGPDYWGQGTLVTVSS
VL: DIQMTQSPSSLSASVGDRVTITCRASQGIRNYLAWFQQKPGKAPKSLIYLATSLQSGVPSKFSGSGSGTDFTLTISSLQPEDFATYYCQQYYSYPWTFGQGTKVEIK
notes: mouse IgG2 Fc (H2aM prefix)
B6: H2aM8109N (antibody, V domains shown)
VH: QVQVVESGGGVVQPGRSLRLSCAASGFTFSSYGLHWVRQAPGKGLEWVAVIWHDGSHKYYADSVKGRFTISRDNSKNTLYLQMNSLRAEDTAVYYCARDGIPVAEDYYFYGMDVWGQGTTVTVSS
VL: DIQMTQSPSSLSASVGDRVTITCRASQGIRNDLGWYQQKPGKAPKRLIYAASSLQSGVPSRFSGSGSGTEFTLTISSLQPEDFAIYYCLQHNSLTFGGGTKVEIK
notes: mouse IgG2 Fc (H2aM prefix)
B7: H2aM8098N (antibody, V domains shown)
VH: QLQLQESGPGLVKPSETLSLTCTVSGGSISSSNYYWDWIRQTPEKGLEWIGSIHYSGTSYYNPSLKSRVTISVDTSKNQFSLKLRSVTAADAAVYYCARQTSVYWYFDIWGHGTLVTVST
VL: EIVLTQSPGTLSLSPGEGATLSCRASQSVRNNYLAWYQQKPGQAPRLLIYGASSRAIGIPDRFSGSGSGTDFTLTISRLEPKDFVVYYCQQYGGSLFTFGPGTKVDIK
notes: mouse IgG2 Fc (H2aM prefix)
B8: H1H8900P (antibody, V domains shown)
VH: QVQLVESGGGVVQPGRSLRLSCVASGFTFSSYGMHWVRQAPGKGLEWVAVISFDGSNKYYADSVKGRFTISRDNSKNTLYLQMNSLRPADTAVYYCAKDRSNYYYFGMDVWGQGTTVTVSS
VL: DIVMTQTPLSLPVTPGEPASISCRSSQSLLDSDDGNTYLDWYLQKPGQSPQLLIYTLSYRASGVPDRFSGSGSGTDFTLKISRVEAEDVGVYYCMQRIEFPLTFGGGTKVEIK
notes: H1H Fc prefix (human Fc)
B9: H2aM8832N (antibody, V domains shown)
VH: QVQLVESGGGVVQPGRSLRLSCAASGFTFSRYGMHWVRQAPGKGLEWVAVIWYDGTNKYYEDSLKGRFTISRDNSKNTLYLQMNSLRAEDSAVYYCARDQGKYIDYWGQGTLVTVSS
VL: AIQMTQSPSSLSASVGDRVTITCRTSQDIRNDLGWYQQKPGKVPNLLIYAASTLQSGVPSRFSGSGSGTDFTLTISSLQPEDFATYYCLQDYNYPFTFGPGTKVDIK
notes: mouse IgG2 Fc (H2aM prefix)
B10: H4H8859P (antibody, V domains shown)
VH: EVQLVESGGSVVRPGGSLRLSCAASGFTFDVYGMSWVRQAPGKGLEWVSGINWIGGSTGYADSVKGRFTISRDNAKNSLYLQMNSLRAEDTALYYCTREEDYWGQGTLVTVSS
VL: DVVMTQSPLSLAVTLGQPASISCRSSQSLVYSDGNTYLNWFQQRPGQSPRRLFYKVSNRDSGVPDRFSGSGSGTDFTLKISRVEAEDVGIYYCMQGIKWPLTFGGGTKVEIK
notes: human IgG4 Fc (H4H prefix)
B11: H4H8870P (antibody, V domains shown)
VH: B10 VH with S10G, T28K, A40L, N52S, I54T, T58S, A75G, N77K
VL: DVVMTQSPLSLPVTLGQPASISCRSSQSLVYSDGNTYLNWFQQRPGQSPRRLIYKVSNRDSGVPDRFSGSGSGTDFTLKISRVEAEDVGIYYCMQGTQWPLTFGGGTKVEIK
notes: human IgG4 Fc (H4H prefix)

target: T2, human KLB and human FGFR1c co-expressed on HEK293/hKLB/hFGFR1c/SRE-luc cells (human, UniProt Q86Z14 1-1044; P11362 22-822); assay: cell-based or functional assay

Row | IC50, inhibition of 1 nM hFGF21 [nM] | Maximum Inhibition (%) of 1 nM hFGF21 [%] | Binder
1 | 1.5 | 106 | B1
2 | 0.12 | 50 | B2
3 | 0.09 | 65 | B3
4 | 0.04 | 20 | B4
5 | 0.067 | 65 | B5
6 | 0.033 | 23 | B6
7 | 15 | 62 | B7
8 | 4.5 | 41 | B8

target: M. fascicularis KLB and human FGFR1c co-expressed on HEK293/MfKLB/hFGFR1c/SRE-Luc cells (M. fascicularis; human, UniProt A0A2K5WB58 1-1044); assay: cell-based or functional assay

Row | IC50, inhibition of 10 nM mfFGF21 [nM] | Maximum Inhibition (%) of 10 nM mfFGF21 [%] | Binder
9 | 2.3 | 104 | B1
10 | 0.22 | 18 | B2
11 | 0.03 | 47 | B3
12 | 0.026 | 46 | B5
13 | 0.19 | 32 | B6
14 | 0.11 | 15 | B9

target: T3, full-length human FGFR1c on HEK293/hFGFR1c/SRE-luc cells (human, UniProt P11362 22-822); assay: FACS on stable HEK293 cells
T3 construct: amino acids 1-733 of NP_075593
Experimental: (§1) To determine binding specificity of the monoclonal anti-KLB/FGFR1c antibodies, the antibodies were tested in a fluorescence-activated cell sorting (FACS) binding assay to cell lines expressing human FGFR1c, human KLB, and both human FGFR1c and human KLB. HEK293 cell lines were generated that stably express full-length human FGFR1c (hFGFR1c; SEQ ID NO:433) or full-length human KLB (hKLB; SEQ ID NO:434) or both human FGFR1c and human KLB, along with a luciferase reporter [SRE (serum response element)-luciferase, SA Bioscience, #CLS-010L]. The resulting cell lines, referred to as HEK293/hFGFR1c/SRE-luc, HEK293/hKLB/SRE-luc, and HEK293/hKLB/hFGFR1c/SRE-luc, respectively, were maintained in DMEM supplemented with 10% FBS, NEAA, penicillin/streptomycin, 1 μg/mL puromycin and […] hygromycin B, 1 μg/mL puromycin and 500 μg/mL G418, or all three antibiotics.
(§2) For the FACS analysis, HEK293 parental, HEK293/hFGFR1c/SRE-luc, HEK293/hKLB/SRE-luc, and HEK293/hKLB/hFGFR1c/SRE-luc cells were dissociated and plated onto 96-well v-bottom plates at 5 x 10⁵ cells/well in PBS containing 1% FBS. […] Cells were filtered and subsequently analyzed on a Hypercyte Flow Cytometer (Intellicyt Corp.). Unstained and secondary antibody alone controls were also tested for binding to all cell lines. The results were analyzed using FlowJo version 9.52 software and geometric mean (Geom. Mean) of fluorescence for viable cells was determined. Geom. mean of fluorescence for each antibody was then normalized to Geom. mean of unstained cells to obtain relative binding of antibody (binding ratios) per each cell type.

T3 sequence (P11362 other isoform, or with tags, fused parts or gaps limits assumed): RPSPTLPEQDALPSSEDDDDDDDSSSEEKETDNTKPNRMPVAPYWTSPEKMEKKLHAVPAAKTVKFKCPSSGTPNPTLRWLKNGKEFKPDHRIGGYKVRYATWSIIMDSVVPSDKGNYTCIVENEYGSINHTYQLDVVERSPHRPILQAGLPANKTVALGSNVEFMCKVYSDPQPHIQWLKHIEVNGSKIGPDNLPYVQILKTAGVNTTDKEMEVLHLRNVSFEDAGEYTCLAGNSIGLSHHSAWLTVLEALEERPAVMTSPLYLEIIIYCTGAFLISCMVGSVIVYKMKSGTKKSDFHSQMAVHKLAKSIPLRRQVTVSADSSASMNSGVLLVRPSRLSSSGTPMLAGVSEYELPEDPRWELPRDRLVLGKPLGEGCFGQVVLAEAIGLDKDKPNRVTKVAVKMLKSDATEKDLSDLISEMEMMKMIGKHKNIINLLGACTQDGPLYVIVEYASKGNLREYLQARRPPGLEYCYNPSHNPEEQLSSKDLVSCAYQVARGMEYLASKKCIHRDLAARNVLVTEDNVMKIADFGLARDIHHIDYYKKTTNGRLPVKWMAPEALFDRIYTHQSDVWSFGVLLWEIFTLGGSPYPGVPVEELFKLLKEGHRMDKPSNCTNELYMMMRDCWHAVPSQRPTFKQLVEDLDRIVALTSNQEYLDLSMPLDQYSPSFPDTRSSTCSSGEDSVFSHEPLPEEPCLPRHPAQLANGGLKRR

Row | binding ratio to unstained cells [fold] | Binder
15 | 1 | B1
16 | 1 | B2
17 | 2 | B3
18 | 5 | B4
19 | 1 | B5
20 | 5 | B10
21 | 5 | B11
22 | 7 | B6
23 | 1 | B7
24 | 5 | B8
25 | 6 | B9

target: T1, full-length human KLB on …; assay: FACS on stable HEK293 cells
Experimental: as §1, §2

Row | binding ratio to unstained cells [fold] | Binder
26 | 8 | B1
27 | 15 | B2
28 | 13 | B3
29 | 3 | B4
30 | 15 | B5
31 | 5 | B10
32 | 4 | B11
33 | 21 | B6
34 | 11 | B7
35 | 1 | B8
36 | 2 | B9

target: T2, human KLB and human FGFR1c co-expressed …; assay: FACS on stable HEK293 cells
Experimental: as §1, §2

Row | binding ratio to unstained cells [fold] | Binder
37 | 37 | B1
38 | 46 | B2
39 | 33 | B3
40 | 4 | B4
41 | 41 | B5
42 | 4 | B10
43 | 4 | B11
44 | 58 | B6
45 | 23 | B7
46 | 6 | B8
47 | 7 | B9
